Entries after “also recorded” stand apart in the source; their conditions may differ. Each block holds one molecule with its values, some of them ahead of it.
Tests used:
[1] = molecular target: T1, FGFR Ig2-NCAM F3(1-2) binding (Mus musculus, UniProt P16092); assay: SPR analysis of inhibition of FGFR Ig2-NCAM F3(1-2) binding; set-up: species or system mouse FGFR1, rat NCAM; details: 20 μM Ig2 module of FGFR, indicated concentrations of SOS; FIG. 4
T1 construct: AGHHHHHH and amino acids 140-251 of FGFR (SwissProt p16092); made in house; host or cells: Pichia pastoris KM71
T1 sequence (P16092 140-251): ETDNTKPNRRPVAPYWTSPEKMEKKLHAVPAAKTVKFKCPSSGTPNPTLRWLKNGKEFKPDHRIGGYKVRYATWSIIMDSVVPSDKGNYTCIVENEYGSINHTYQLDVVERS
Description: The binding of 20 μM Ig2 module of FGFR to the immobilized NCAM F3 modules 1-2 was performed using indicated concentrations of SOS. The experiment was repeated 9 times. Immobilization of the NCAM and FGFR modules and binding analysis were performed using a BIAcore2000 instrument (Biosensor AB, Sweden) at 25° C. using 10 mM sodium phosphate containing 150 mM NaCl (pH 7.4) as running buffer. Data were analyzed by nonlinear curve fitting using the manufacturer's software. The FGFR Ig module 2 and NCAM F3 modules 1-2 were immobilized on sensor chip CM5 using an amine coupling kit (Biosensor AB) as follows: the chip was activated by 20 μl activation solution; the protein was immobilized using 12 μl of 20 μg/ml protein in 10 mM sodium acetate buffer (pH 6.0); the chip was blocked by 35 μl blocking solution. The curves corresponding to the difference between binding to ligand (immobilized molecule) and a blank chip were used for analysis. One of the identified clusters (the first one) is located in the close vicinity of the sites in Ig2 for binding of FGF, heparin and Ig2 (FIG. 3) (Plotnikov et al., 1999; Pellegrini et al., 2000). […] To verify this assumption, we tested sucrose octasulphate (SOS), a well-known heparin analogue, for its ability to inhibit binding of soluble Ig2 to the immobilized NCAM F3 modules.

[2] = molecular target: T2, fibronectin modules (F3(1-2)) of NCAM (Rattus norvegicus, UniProt P13596); assay: Binding of FGFR1-Ig2 derived peptides to immobilized fibronectin modules (F3(1-2)) of NCAM; details: FIG. 5 and FIG. 6
T2 construct: amino acids 507-611 and 507-705 of NCAM (SwissProt p13596), respectively; made in house; host or cells: Pichia pastoris KM71
Description: Immobilization of the NCAM and FGFR modules and binding analysis were performed using a BIAcore2000 instrument (Biosensor AB, Sweden) at 25° C. using 10 mM sodium phosphate containing 150 mM NaCl (pH 7.4) as running buffer. Data were analyzed by nonlinear curve fitting using the manufacturer's software. The FGFR Ig module 2 and NCAM F3 modules 1-2 were immobilized on sensor chip CM5 using an amine coupling kit (Biosensor AB) as follows: the chip was activated by 20 μl activation solution; the protein was immobilized using 12 μl of 20 μg/ml protein in 10 mM sodium acetate buffer (pH 6.0); the chip was blocked by 35 μl blocking solution. The curves corresponding to the difference between binding to ligand (immobilized molecule) and a blank chip were used for analysis.

FGFR1 Ig2 module = molecular target: T3, FGFR1 Ig2 module (Mus musculus, UniProt P16092); assay: SPR binding of soluble NCAM F3 modules 1-2 to immobilized FGFR Ig2 module; details: 25° C., pH 7.4, FIG. 1B, estimated
T3 construct: AGHHHHHH and amino acids 140-251 of FGFR (SwissProt p16092); made in house; host or cells: Pichia pastoris KM71
T3 sequence (P16092 140-251): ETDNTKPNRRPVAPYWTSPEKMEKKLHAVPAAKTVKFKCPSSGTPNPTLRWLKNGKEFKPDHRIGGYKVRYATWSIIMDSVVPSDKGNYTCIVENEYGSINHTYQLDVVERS
From the text: (§1) To study the binding properties between the FGFR Ig2 module and NCAM, we used recombinant proteins of the NCAM F3 modules 1-2 and the FGFR1 Ig2 module. Both proteins were properly folded as judged by one-dimensional NMR.
(§2) The Ig2 module of mouse FGFR1 (IIIc isoform) and rat NCAM F3 modules 1-2 were produced. Both proteins were expressed in a KM71 strain of yeast expression system of P. pastoris (Invitrogen, USA). The FGFR Ig module 2 consists of AGHHHHHH and amino acids 140-251 of FGFR (SwissProt p16092) and the combined F3 modules 1 and 2 consist of AGHHHHHH and amino acids 507-611 and 507-705 of NCAM (SwissProt p13596), respectively. For the protein expression the following media were used: BMGH (0.1 M potassium phosphate pH 6.0, 3.4 g/L yeast nitrogen base (without amino acids and ammonium sulphate), 10 g/L ammonium sulphate, 400 μg/L D-biotin, 60 mg/L L-histidine, 2% glycerol) and BMMH (0.1 M potassium phosphate pH 6.0, 3.4 g/L yeast nitrogen base (without amino acids and ammonium sulphate), 10 g/L ammonium sulphate, 400 μg/L D-biotin, 60 mg/L L-histidine, 1% methanol). […]
(§3) Immobilization of the NCAM and FGFR modules and binding analysis were performed using a BIAcore2000 instrument (Biosensor AB, Sweden) at 25° C. using 10 mM sodium phosphate containing 150 mM NaCl (pH 7.4) as running buffer. Data were analyzed by nonlinear curve fitting using the manufacturer's software. […]

FGFR Ig2-Ig3 construct = molecular target: T4, FGFR Ig2-Ig3 construct (Mus musculus, UniProt P16092); details: SPR; Kiselyov et al., 2003; read-out: dissociation constant (Kd), NCAM F3 modules 1-2 binding to FGFR Ig2-Ig3 construct; cited from earlier work
T4 construct: the double-module FGFR Ig2-Ig3 construct
T4 sequence (P16092 141-365 limits assumed): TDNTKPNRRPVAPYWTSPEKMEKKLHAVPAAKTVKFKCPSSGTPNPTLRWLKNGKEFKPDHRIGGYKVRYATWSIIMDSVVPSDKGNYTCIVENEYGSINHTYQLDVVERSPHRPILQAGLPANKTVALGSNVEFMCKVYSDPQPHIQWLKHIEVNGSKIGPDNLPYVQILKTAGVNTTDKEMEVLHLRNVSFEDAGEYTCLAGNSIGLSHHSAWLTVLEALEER

NCAM F3 modules 1-2 = molecular target: T5, NCAM F3 modules 1-2 (Rattus norvegicus, UniProt P13596); assay: SPR binding of soluble FGFR Ig2 module to immobilized NCAM F3 modules 1-2; details: 25° C., pH 7.4, FIG. 1A, estimated
T5 construct: amino acids 507-611 and 507-705 of NCAM (SwissProt p13596), respectively; made in house; host or cells: Pichia pastoris KM71
From the text: as §1, §2, §3

Molecule: O=S(=O)(O)OC[C@H]1O[C@@](COS(=O)(=O)O)(O[C@H]2O[C@H](COS(=O)(=O)O)[C@@H](OS(=O)(=O)O)[C@H](OS(=O)(=O)O)[C@H]2OS(=O)(=O)O)[C@@H](OS(=O)(=O)O)[C@@H]1OS(=O)(=O)O [SOS, sucrose octasulphate]
inhibition of binding of soluble Ig2 to the immobilized NCAM F3 modules [1]: capable of inhibiting; also recorded: inhibitory effect

binding to the immobilized fibronectin modules (F3(1-2)) of NCAM [2]: binding
Molecule: AKTVKFK (Derived from FGFR) [SEQ ID NO:2, FGFR1-Ig2 derived peptide (amino acids 171-177)]

binding to the immobilized fibronectin modules (F3(1-2)) of NCAM [2]: binding
Molecule: RWLKNGKEFK (Derived from FGFR) [SEQ ID NO:3, FGFR1-Ig2 derived peptide (amino acids 189-198)]

Kd (FGFR1 Ig2 module): 12 µM
B1: NCAM F3 modules 1-2: recombinant rat NCAM fibronectin type III modules 1-2 with AGHHHHHH tag (SwissProt p13596) (protein)
chain: AGHHHHHHQADTPSSPSIDRVEPYSSTAQVQFDEPEATGGVPILKYKAEWKSLGEEAWHSKWYDAKEANMEGIVTIMGLKPETRYAVRLAALNGKGLGEISAATEFKTQPVREPSAPKLEGQMGEDGNSIKVNLIKQDDGGSPIRHYLVKYRALASEWKPEIRLPSGSDHVMLKSLDWNAEYEVYVVAENQQGKSKAAHFVFRTSAQ
Kd (FGFR Ig2-Ig3 construct): 10 µM

Kd (NCAM F3 modules 1-2): 35 µM
B2: FGFR Ig2 module: recombinant Ig2 module of mouse FGFR1 (IIIc isoform): AGHHHHHH and amino acids 140-251 of FGFR (SwissProt p16092) (protein)
chain: AGHHHHHHETDNTKPNRRPVAPYWTSPEKMEKKLHAVPAAKTVKFKCPSSGTPNPTLRWLKNGKEFKPDHRIGGYKVRYATWSIIMDSVVPSDKGNYTCIVENEYGSINHTYQLDVVERS
